One test addresses Insulin. Nature of the test: ELISA on coated insulin, OD450.
For test [1], the target named is T1, human CD47-Fc (human, UniProt Q08722 19-139).
T1 construct: also called hCD47; human CD47-Fc protein; not shown: Fc part
Kind of test: HTRF competition with labelled h5F9G4 IgG1 (m11) for human CD47-Fc, normalised 665/615 ratio. (In general: TR-FRET usually uses a lanthanide donor and a delayed reading to cut background.)

For test [2], the target named is T1, human CD47-Fc. Nature of the test: competition ELISA: human CD47-Fc binding to plate-bound human SIRPa-Fc, % binding.
Test [3] deals with T2, human CD47 on cells (human CD47-transfected CHO-K1 cells; HL60; Jurkat) (human, UniProt Q08722 19-323).
T2 construct: CHO-K1 cells stably transfected with human CD47 full-length cDNA; also endogenous CD47 of the human AML line HL60 and of Jurkat cells; also called human CD47+ cells; human CD47+CHO-K1
Kind of test: flow cytometry, human CD47-transfected CHO-K1 cells, 100-0.024 µg/ml. A general note: In flow cytometry, cells or beads pass a laser one at a time.

The target of test [4] is T1, human CD47-Fc. Kind of test: HTRF epitope competition; competitor Tb-labelled h5F9G4 IgG1 on biotinylated human CD47-Fc.
In test [5] the target is T3, cynomolgus monkey CD47-Fc (cynomolgus monkey, UniProt Q08722 19-139 (human entry), limits assumed).
T3 construct: also called cCD47; cyno CD47-Fc; not shown: Fc part
T3 chain: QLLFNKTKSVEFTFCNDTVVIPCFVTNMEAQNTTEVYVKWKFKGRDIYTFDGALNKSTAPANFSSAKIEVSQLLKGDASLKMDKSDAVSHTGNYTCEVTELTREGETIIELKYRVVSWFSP
Nature of the test: competition ELISA: cyno CD47-Fc binding to plate-bound human SIRPa-Fc, OD450. On the technique in general: An ELISA detects its analyte on a solid surface through an enzyme-linked reagent.

In test [6] the target is T4, cynomolgus monkey CD47 on cyno CD47-transfected CHO-K1 cells (cynomolgus monkey, UniProt Q08722 19-323 (human entry)).
T4 construct: CHO-K1 cells stably transfected with cyno CD47 full-length cDNA; also called cyno CD47+ cells; cyno CD47+CHO-K1
T4 chain: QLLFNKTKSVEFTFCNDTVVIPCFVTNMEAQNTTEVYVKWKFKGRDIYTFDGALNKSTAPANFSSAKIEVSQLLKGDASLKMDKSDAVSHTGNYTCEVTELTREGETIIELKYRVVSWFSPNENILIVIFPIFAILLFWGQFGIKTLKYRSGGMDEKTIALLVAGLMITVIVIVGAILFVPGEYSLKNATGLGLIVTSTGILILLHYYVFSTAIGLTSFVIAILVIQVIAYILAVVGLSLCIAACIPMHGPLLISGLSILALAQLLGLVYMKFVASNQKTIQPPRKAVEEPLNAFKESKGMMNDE
Kind of test: flow cytometry, cyno CD47-transfected CHO-K1 cells, 100-0.024 µg/ml.

Test [7] concerns the target T1, human CD47-Fc. Nature of the test: HTRF competition with labelled h5F9G4 IgG1 (m11) for human CD47-Fc, 665/615 ratio.
For test [8], the target named is T1, human CD47-Fc. The description is as above. This is another data set of the same source.
The target in test [9] is T1, human CD47-Fc. Kind of test: direct ELISA, coated human CD47-Fc, OD450.
Test [10] concerns the target T3, cynomolgus monkey CD47-Fc. Kind of test: direct ELISA, coated cyno CD47-Fc, OD450 [D00009 FIG. 6D; D00010 FIG. 6F; D00011 FIG. 6H].
Test [11] has as its target T3, cynomolgus monkey CD47-Fc. Kind of test: competition ELISA: cyno CD47-Fc binding to plate-bound human SIRPa-Fc, % binding.
The target in test [12] is T1, human CD47-Fc. Kind of test: direct ELISA, coated human CD47-Fc, OD450 [D00009 FIG. 6C; D00010 FIG. 6E; D00011 FIG. 6G].
Test [13] has as its target T1, human CD47-Fc. Kind of test: competition ELISA: human CD47-Fc binding to plate-bound human SIRPa-Fc, OD450.
In test [14] the target is T3, cynomolgus monkey CD47-Fc. Kind of test: HTRF competition with labelled h5F9G4 IgG1 (m11) for cyno CD47-Fc, normalised 665/615 ratio.
The target of test [15] is T3, cynomolgus monkey CD47-Fc. Nature of the test: HTRF epitope competition; competitor Tb-labelled h5F9G4 IgG1 on biotinylated cyno CD47-Fc.

Sequence of Insulin (P01308 25-54, chain 1 of 2): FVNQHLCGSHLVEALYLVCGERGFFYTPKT
Sequence of Insulin (P01308 90-110, chain 2 of 2): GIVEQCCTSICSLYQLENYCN

Turning to “Bococizumab human IgG1 analogue (antibody)”, in the test with Insulin, the EC50 (read off the curve) (in general, the midpoint of the concentration-response curve) is 0.02 µg/mL.

B1: chimeric anti-CD47 m5F9G4, human IgG1null (antibody, V domains shown)
VH: QVQLQQPGAELVKPGASVMMSCKASGYTFTNYNMHWVKQTPGQGLEWIGTIYPGNDDTSYNQKFKDKATLTADKSSSAAYMQLSSLTSEDSAVYYCARGGYRAMDYWGQGTSVTVSS
VL: DVLMTQTPLSLPVSLGDQASISCRSSQSIVYSNGNTYLGWYLQKPGQSPKLLIYKVSNRFSGVPDRFSGSGSGTDFTLKISRVEAEDLGVYHCFQGSHVPYTFGGGTKVEIK
notes: Murine v-domains on human IgG1null (IgG1 with L234A/L235A/G237A), kappa; also called m5F9G4 IgG1; m59G4
As to B1, the “IC50 (read off the curve)” value was about 0.3 µg/mL with human CD47-Fc [1]; about 0.3 µg/mL with human CD47-Fc [2]; about 3 nM in [5]; about 0.05 µg/mL with human CD47-Fc [7]; about 0.05 µg/mL in the test with human CD47-Fc [8]; about 0.2 µg/mL in [11]. Also, the “IC50 (read off the curve)” value was about 1 nM with human CD47-Fc [13] and about 0.1 µg/mL in [14]. In addition, the “maximum MFI over background on untransfected CHO-K1 (fold)” value in [3] and in test [6] was over 50 fold each time. For the same molecule, the IC50 (as a rule, the point on the concentration scale where inhibition reaches its midpoint) stood at 0.601 µg/mL with human CD47-Fc [4] and 0.809 µg/mL in test [15]. Also, the figures for the concentration giving a half-maximal response (EC50 (read off the curve)) (with human CD47-Fc [9]; in test [10]; with human CD47-Fc [12]) were about 0.04 µg/mL, about 0.06 µg/mL and about 0.07 µg/mL, respectively.

Values taken from patent US20260015420A1 (CENTESSA PHARMACEUTICALS UK, published 2026).
